Results published in US20180250358A1, “GHRH AGONISTS FOR THE TREATMENT OF ISCHEMIC DISORDERS” (published 2018).
Non-standard residues stand in square brackets, D forms with d. No end group written: not given here. *: point of attachment. Phe(F5) = N[C@@H](Cc1c(F)c(F)c(F)c(F)c1F)C(=O)O; Desaminotyrosyl = O=C(CCc1ccc(O)cc1)*; NMeY = CN[C@@H](Cc1ccc(O)cc1)C(=O)O; Agmatine = N=C(N)NCCCCN*; Nle = CCCC[C@H](N)C(=O)O; Orn = NCCC[C@H](N)C(=O)O; Abu = CC[C@H](N)C(=O)O; Ava = NCCCCC(=O)O

T1: GHRH receptor of human pituitary membranes (human, UniProt Q02643)
T1 sequence: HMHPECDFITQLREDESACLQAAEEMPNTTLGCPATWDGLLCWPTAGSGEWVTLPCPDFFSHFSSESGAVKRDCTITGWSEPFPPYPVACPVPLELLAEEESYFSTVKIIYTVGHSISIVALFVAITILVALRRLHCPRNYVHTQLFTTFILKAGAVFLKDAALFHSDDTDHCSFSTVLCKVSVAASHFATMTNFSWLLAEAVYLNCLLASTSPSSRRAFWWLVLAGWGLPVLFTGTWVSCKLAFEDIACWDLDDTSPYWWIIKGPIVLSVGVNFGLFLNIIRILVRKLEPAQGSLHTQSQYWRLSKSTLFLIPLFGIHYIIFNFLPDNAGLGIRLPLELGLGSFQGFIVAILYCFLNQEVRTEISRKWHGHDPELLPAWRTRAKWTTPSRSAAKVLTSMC

B1: P-27407 [Dat^1, Gln^8, Orn^12, Abu^15, Orn^21, Nle^27, Asp^28]hGHRH(1-29)NH-CH3 (peptide)
peptide: [Desaminotyrosyl]ADAIFTQSYR[Orn]VL[Abu]QLSAR[Orn]LLQDI[Nle]DR-NHMe
SMILES: CCCC[C@H](NC(=O)[C@@H](NC(=O)[C@H](CC(=O)O)NC(=O)[C@H](CCC(N)=O)NC(=O)[C@H](CC(C)C)NC(=O)[C@H](CC(C)C)NC(=O)[C@H](CCCN)NC(=O)[C@H](CCCNC(=N)N)NC(=O)[C@H](C)NC(=O)[C@H](CO)NC(=O)[C@H](CC(C)C)NC(=O)[C@H](CCC(N)=O)NC(=O)[C@H](CC)NC(=O)[C@H](CC(C)C)NC(=O)[C@@H](NC(=O)[C@H](CCCN)NC(=O)[C@H](CCCNC(=N)N)NC(=O)[C@H](Cc1ccc(O)cc1)NC(=O)[C@H](CO)NC(=O)[C@H](CCC(N)=O)NC(=O)[C@@H](NC(=O)[C@H](Cc1ccccc1)NC(=O)[C@@H](NC(=O)[C@H](C)NC(=O)[C@H](CC(=O)O)NC(=O)[C@H](C)NC(=O)CCc1ccc(O)cc1)[C@@H](C)CC)[C@@H](C)O)C(C)C)[C@@H](C)CC)C(=O)N[C@@H](CC(=O)O)C(=O)N[C@@H](CCCNC(=N)N)C(=O)NC
B2: P-22326 [N-Me-Tyr^1, D-Ala^2, Gln^8, Orn^12, Abu^15, Orn^21, Nle^27, Asp^28, Apa^30]hGHRH(1-30)NH2 (peptide)
peptide: [NMeY][dA]DAIFTQSYR[Orn]VL[Abu]QLSAR[Orn]LLQDI[Nle]DR[Ava]-NH2
modifications: N-terminus assumed
SMILES: CCCC[C@H](NC(=O)[C@@H](NC(=O)[C@H](CC(=O)O)NC(=O)[C@H](CCC(N)=O)NC(=O)[C@H](CC(C)C)NC(=O)[C@H](CC(C)C)NC(=O)[C@H](CCCN)NC(=O)[C@H](CCCNC(=N)N)NC(=O)[C@H](C)NC(=O)[C@H](CO)NC(=O)[C@H](CC(C)C)NC(=O)[C@H](CCC(N)=O)NC(=O)[C@H](CC)NC(=O)[C@H](CC(C)C)NC(=O)[C@@H](NC(=O)[C@H](CCCN)NC(=O)[C@H](CCCNC(=N)N)NC(=O)[C@H](Cc1ccc(O)cc1)NC(=O)[C@H](CO)NC(=O)[C@H](CCC(N)=O)NC(=O)[C@@H](NC(=O)[C@H](Cc1ccccc1)NC(=O)[C@@H](NC(=O)[C@H](C)NC(=O)[C@H](CC(=O)O)NC(=O)[C@@H](C)NC(=O)[C@H](Cc1ccc(O)cc1)NC)[C@@H](C)CC)[C@@H](C)O)C(C)C)[C@@H](C)CC)C(=O)N[C@@H](CC(=O)O)C(=O)N[C@@H](CCCNC(=N)N)C(=O)NCCCCC(N)=O
B3: P-22327 [Dat^1, Gln^8, Orn^12, Abu^15, Orn^21, Nle^27, Asp^28, Apa^30]hGHRH(1-30)NH2 (peptide)
peptide: [Desaminotyrosyl]ADAIFTQSYR[Orn]VL[Abu]QLSAR[Orn]LLQDI[Nle]DR[Ava]-NH2
SMILES: CCCC[C@H](NC(=O)[C@@H](NC(=O)[C@H](CC(=O)O)NC(=O)[C@H](CCC(N)=O)NC(=O)[C@H](CC(C)C)NC(=O)[C@H](CC(C)C)NC(=O)[C@H](CCCN)NC(=O)[C@H](CCCNC(=N)N)NC(=O)[C@H](C)NC(=O)[C@H](CO)NC(=O)[C@H](CC(C)C)NC(=O)[C@H](CCC(N)=O)NC(=O)[C@H](CC)NC(=O)[C@H](CC(C)C)NC(=O)[C@@H](NC(=O)[C@H](CCCN)NC(=O)[C@H](CCCNC(=N)N)NC(=O)[C@H](Cc1ccc(O)cc1)NC(=O)[C@H](CO)NC(=O)[C@H](CCC(N)=O)NC(=O)[C@@H](NC(=O)[C@H](Cc1ccccc1)NC(=O)[C@@H](NC(=O)[C@H](C)NC(=O)[C@H](CC(=O)O)NC(=O)[C@H](C)NC(=O)CCc1ccc(O)cc1)[C@@H](C)CC)[C@@H](C)O)C(C)C)[C@@H](C)CC)C(=O)N[C@@H](CC(=O)O)C(=O)N[C@@H](CCCNC(=N)N)C(=O)NCCCCC(N)=O
B4: P-20351 [Ac-N-Me-Tyr^1, D-Ala^2, Gln^8, Orn^12, Abu^15, Orn^21, Nle^27, Asp^28, Agm^29]hGHRH(1-29)NH2 (peptide)
peptide: Ac-[NMeY][dA]DAIFTQSYR[Orn]VL[Abu]QLSAR[Orn]LLQDI[Nle]D[Agmatine]
SMILES: CCCC[C@H](NC(=O)[C@@H](NC(=O)[C@H](CC(=O)O)NC(=O)[C@H](CCC(N)=O)NC(=O)[C@H](CC(C)C)NC(=O)[C@H](CC(C)C)NC(=O)[C@H](CCCN)NC(=O)[C@H](CCCNC(=N)N)NC(=O)[C@H](C)NC(=O)[C@H](CO)NC(=O)[C@H](CC(C)C)NC(=O)[C@H](CCC(N)=O)NC(=O)[C@H](CC)NC(=O)[C@H](CC(C)C)NC(=O)[C@@H](NC(=O)[C@H](CCCN)NC(=O)[C@H](CCCNC(=N)N)NC(=O)[C@H](Cc1ccc(O)cc1)NC(=O)[C@H](CO)NC(=O)[C@H](CCC(N)=O)NC(=O)[C@@H](NC(=O)[C@H](Cc1ccccc1)NC(=O)[C@@H](NC(=O)[C@H](C)NC(=O)[C@H](CC(=O)O)NC(=O)[C@@H](C)NC(=O)[C@H](Cc1ccc(O)cc1)N(C)C(C)=O)[C@@H](C)CC)[C@@H](C)O)C(C)C)[C@@H](C)CC)C(=O)N[C@@H](CC(=O)O)C(=O)NCCCCNC(=N)N
B5: P-27401 [Dat^1, D-Ala^2, Gln^8, Orn^12, Abu^15, Orn^21, Nle^27, Asp^28, D-Arg^29]hGHRH(1-29)NH-CH3 (peptide)
peptide: [Desaminotyrosyl][dA]DAIFTQSYR[Orn]VL[Abu]QLSAR[Orn]LLQDI[Nle]D[dR]-NHMe
SMILES: CCCC[C@H](NC(=O)[C@@H](NC(=O)[C@H](CC(=O)O)NC(=O)[C@H](CCC(N)=O)NC(=O)[C@H](CC(C)C)NC(=O)[C@H](CC(C)C)NC(=O)[C@H](CCCN)NC(=O)[C@H](CCCNC(=N)N)NC(=O)[C@H](C)NC(=O)[C@H](CO)NC(=O)[C@H](CC(C)C)NC(=O)[C@H](CCC(N)=O)NC(=O)[C@H](CC)NC(=O)[C@H](CC(C)C)NC(=O)[C@@H](NC(=O)[C@H](CCCN)NC(=O)[C@H](CCCNC(=N)N)NC(=O)[C@H](Cc1ccc(O)cc1)NC(=O)[C@H](CO)NC(=O)[C@H](CCC(N)=O)NC(=O)[C@@H](NC(=O)[C@H](Cc1ccccc1)NC(=O)[C@@H](NC(=O)[C@H](C)NC(=O)[C@H](CC(=O)O)NC(=O)[C@@H](C)NC(=O)CCc1ccc(O)cc1)[C@@H](C)CC)[C@@H](C)O)C(C)C)[C@@H](C)CC)C(=O)N[C@@H](CC(=O)O)C(=O)N[C@H](CCCNC(=N)N)C(=O)NC

Legend:
[1] = target: T1, GHRH receptor of human pituitary …; assay: competition vs 125I-JV-1-42, human pituitary membranes;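 further: pituitaries used were normal human glands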
Excerpt: Normal human pituitaries were purchased from the National Hormone and Peptide Program (A.F. Parlow, Los Angeles, County Harbor-UCLA Medical Center, Torrance, Calif.).

[2] = target: T1, GHRH receptor of human pituitary …; assay: competition vs 125I-[His1,Nle27]hGHRH(1-32)NH2, human pituitary membranes
Excerpt: Normal human pituitary was purchased from the National Hormone and Peptide Program (UCLA Medical Center, Torrance, Calif.).

| Binder | IC50 [1] | relative affinity (binding potency) vs JI-38 [1] | relative affinity (binding potency) compared to JI-38 [2] | relative affinity (binding potency) compared to hGHRH(1-29) [2] | IC50 [2] |
| --- | --- | --- | --- | --- | --- |
| [NMeY][dA]DAI[Phe(F5)]TNSYR[Orn]VL[Abu]QLSAR[Orn]LLQDI[Nle]DR-NHMe [P-27404 [N-Me-Tyr^1, D-Ala^2, Fpa5^6, Orn^12, Abu^15, Orn^21, Nle^27, Asp^28]hGHRH(1-29)NH-CH3] | 0.87 nM | 5 vs JI-38=1 | 2.45 vs JI-38=1 | 6.83 vs hGHRH(1-29)NH2=1 |  |
| [NMeY]ADAIFTQSYR[Orn]VL[Abu]QLSAR[Orn]LLQDI[Nle]SR-NHMe [P-27405 [N-Me-Tyr^1, Gln^8, Orn^12, Abu^15, Orn^21, Nle^27]hGHRH(1-29)NH-CH3] | 1.08 nM | 4.03 vs JI-38=1 | 1.09 vs JI-38=1 | 3.04 vs hGHRH(1-29)NH2=1 |  |
| [NMeY]ADAIFTQSYR[Orn]VL[Abu]QLSAR[Orn]LLQDI[Nle]DR-NHMe [P-27406 [N-Me-Tyr^1, Gln^8, Orn^12, Abu^15, Orn^21, Nle^27, Asp^28]hGHRH(1-29)NH-CH3] | 0.3 nM | 14.5 vs JI-38=1 | 2.95 vs JI-38=1 | 8.22 vs hGHRH(1-29)NH2=1 |  |
| B1 | 3 nM | 1.45 vs JI-38=1 | 0.54 vs JI-38=1 | 1.52 vs hGHRH(1-29)NH2=1 |  |
| [NMeY][dA]DAIFTNSYR[Orn]VL[Abu]QLSAR[Orn]LLQDI[Nle]DR-NHMe [P-27409 [N-Me-Tyr^1, D-Ala^2, Orn^12, Abu^15, Orn^21, Nle^27, Asp^28]hGHRH(1-29)NH-CH3] | 1.06 nM | 4.1 vs JI-38=1 | 2.71 vs JI-38=1 | 7.57 vs hGHRH(1-29)NH2=1 | 1.01 nM |
| [NMeY][dA]DAIFTTSYR[Orn]VL[Abu]QLSAR[Orn]LLQDI[Nle]DR-NHMe [P-27410 [N-Me-Tyr^1, D-Ala^2, Thr^8, Orn^12, Abu^15, Orn^21, Nle^27, Asp^28]hGHRH(1-29)NH-CH3] | 0.83 nM | 5.24 vs JI-38=1 | 2.14 vs JI-38=1 | 5.98 vs hGHRH(1-29)NH2=1 | 1.28 nM |
| [NMeY][dA]DAIFTQSYR[Orn]VL[Abu]QLSAR[Orn]LLQDI[Nle]DR-NHEt [P-28420 [N-Me-Tyr^1, D-Ala^2, Gln^8, Orn^12, Abu^15, Orn^21, Nle^27, Asp^28]hGHRH(1-29)NH-CH2-CH3] | 0.52 nM | 8.37 vs JI-38=1 | 1.01 vs JI-38=1 | 2.83 vs hGHRH(1-29)NH2=1 | 2.7 nM |
| [NMeY][dA]DAIFTNSYR[Orn]VL[Abu]QLSAR[Orn]LLQDI[Nle]DR-NHEt [P-28421 [N-Me-Tyr^1, D-Ala^2, Orn^12, Abu^15, Orn^21, Nle^27, Asp^28]hGHRH(1-29)NH-CH2-CH3] | 1.47 nM | 2.96 vs JI-38=1 | 0.9 vs JI-38=1 | 2.5 vs hGHRH(1-29)NH2=1 | 3.05 nM |
| B2 | 0.71 nM | 6.12 vs JI-38=1 | 2.8 vs JI-38=1 | 7.81 vs hGHRH(1-29)NH2=1 | 0.98 nM |
| B3 | 1.99 nM | 2.18 vs JI-38=1 | 1.34 vs JI-38=1 | 3.75 vs hGHRH(1-29)NH2=1 |  |
| B4 | 3.44 nM | 1.26 vs JI-38=1 | 0.71 vs JI-38=1 | 1.98 vs hGHRH(1-29)NH2=1 | 3.87 nM |
| [NMeY][dA]DAIFTQSYR[Orn]VL[Abu]QLSAR[Orn]LLQDI[Nle]D[Agmatine] [P-20361 [N-Me-Tyr^1, D-Ala^2, Gln^8, Orn^12, Abu^15, Orn^21, Nle^27, Asp^28, Agm^29]hGHRH(1-29)NH2] | 0.82 nM | 5.3 vs JI-38=1 | 2.3 vs JI-38=1 | 6.42 vs hGHRH(1-29)NH2=1 | 1.19 nM |
| [NMeY][dA]DAIFTNSYR[Orn]VL[Abu]QLSAR[Orn]LLQDI[Nle]D[Agmatine] [P-20367 [N-Me-Tyr^1, D-Ala^2, Orn^12, Abu^15, Orn^21, Nle^27, Asp^28, Agm^29]hGHRH(1-29)NH2] | 1.7 nM | 2.56 vs JI-38=1 | 2.51 vs JI-38=1 | 7.01 vs hGHRH(1-29)NH2=1 | 1.09 nM |
| B5 | 2.74 nM | 1.59 vs JI-38=1 | 1.05 vs JI-38=1 | 2.94 vs hGHRH(1-29)NH2=1 | 2.6 nM |
